# Test results: patent US20110091971A1, “Differentiation of Pluripotent Stem Cells” (priority 2008, published 2011)
# Legend:
# [1] = tested on: Human Embryonic Stem Cells (H1 hESC line); test: High content analysis of cell number, PDX1 and CDX2 protein expression at conclusion of third step of differentiation (Example 12); assay type: cell-based; conditions: end of third step; peptide given during first step; compared with commercial activin A or ACTN1
# Method: (§1) At the conclusion of the first step of the differentiation protocol, replicate sets of parallel wells for each treatment group were subjected to further step-wise differentiation. It is important to note that after the first three days, all wells undergoing continuing culture and differentiation received the same treatment. The protocol for this continuing differentiation is described below.
# During the second step of differentiation, cultures were grown for two days in DMEM:F12 medium (Invitrogen; Cat #11330-032) supplemented with 2% Albumin Bovine Fraction V, Fatty Acid Free (FAF BSA) (MP Biomedicals, Inc; Cat #152401), 50 ng/ml FGF7 (PeproTech; Cat #100-19), and 250 nM cyclopamine (Calbiochem; Cat #239804). Medium in each well was aspirated and replaced with a fresh aliquot (0.5 ml) on both days.
# Step 3 of the differentiation protocol was carried out over four days. Cells were fed daily by aspirating medium from each well and replacing with a fresh aliquot (0.5 ml) of DMEM-high glucose (Invitrogen; Cat #10569) supplemented with 1% B27 (Invitrogen; Cat #17504-044), 50 ng/ml FGF7, 100 ng/ml Noggin (R&D Systems; Cat #3344-NG), 250 nM KAAD-cyclopamine (Calbiochem; Cat #239804), and 2 μM all-trans retinoic acid (RA) (Sigma-Aldrich; Cat #R2625). At the conclusion of the third step of differentiation, cells from some wells were harvested for analysis by RT-PCR to measure markers of differentiation. Other culture wells were subjected to high content image analysis for protein expression levels of PDX1, a transcription factor correlated with pancreatic endoderm differentiation, and CDX2, a transcription factor associated with intestinal endoderm.
# High Content Analysis: At the conclusion of three days of culture, assay plates were washed once with PBS (Invitrogen; Cat #14190), fixed with 4% paraformaldehyde (Alexis Biochemical; Cat #ALX-350-011) at room temperature for 20 minutes, then washed three times with PBS and permeabilized with 0.5% Triton X-100 (Sigma; Cat #T8760-2) for 20 minutes at room temperature. Cells were washed again three times with PBS and blocked with 4% chicken serum (Invitrogen; Cat #16110082) in PBS for 30 minutes at room temperature. Primary antibody (goat anti-human SOX17; R&D Systems; Cat #AF1924) was diluted 1:100 in 4% chicken serum and added to each well for two hours at room temperature. […]
# Imaging was performed using an IN Cell Analyzer 1000 (GE Healthcare) utilizing the 51008bs dichroic for cells stained with Hoechst 33342 and Alexa Fluor 488. […] Segmentation for the nuclei was determined based on gray-scale levels (baseline range 100-300) and nuclear size. Averages and standard deviations were calculated for each replicate data set. […]
# [2] = tested on: Human Embryonic Stem Cells (H1 hESC line); test: RT-PCR of PDX1 and CDX2 at conclusion of third step of differentiation (Example 12); assay type: cell-based; conditions: end of third step; peptide given during first step
# Description: as §1, with “below. […]” for “below.”
# RT-PCR Analysis: RNA samples were purified by binding to a silica-gel membrane (Rneasy Mini Kit, Qiagen, CA) in the presence of an ethanol-containing, high-salt buffer followed by washing to remove contaminants. […] Yield and purity were assessed by A260 and A280 readings on a spectrophotometer. […]
# Unless otherwise stated, all reagents were purchased from Applied Biosystems. […] For each primer/probe set, a Ct value was determined as the cycle number at which the fluorescence intensity reached a specific value in the middle of the exponential region of amplification. Relative gene expression levels were calculated using the comparative Ct method. […] The normalized amount of target was calculated as 2-ΔCt, assuming amplification to be 100% efficiency. […]
Molecule,cell numbers [1],protein expression of PDX1 and CDX2 [1],RT-PCR results for PDX1 and CDX2 [2]
"ACTN4: activin A variant peptide, SEQ ID 5 (protein) GLECDGKVNLCCKKQLFVSFKDIGWNDWIIAPSGYHANHCSGLCPSHIAGTSGSSLSFHSTVINHYRMRGHSPFSDMGACCVPTKLRPMSMLYYDDGQNIIKKDIQNMIVEECGCS",equivalent cell numbers,equivalent protein expression,in agreement
"ACTN48: activin A variant peptide, SEQ ID 49 (protein) GLECDGKVNLCCKKQNFVSFKDIGWNDWIIAPSGYHANECSGLCPSHIAGTSGSSLSFHSTVINHYRMRGHSPFANMGACCIPTKLRPMSMLYYDDGQNIIKKDIQNMIVEECGCS",equivalent cell numbers,equivalent protein expression,in agreement
